# Reference: US20050042720A1, “Novel promiscuous G alpha protein mutants and their use” (7TM Pharma A/S, priority 2003, published 2005)
# Target: Gq-coupled receptors
# Test: cell-based or functional assay
binder,measurement,value
"GαqG66D, P21279 1-359 (protein, not fully specified) MTLESIMACCLSEEAKEARRINDEIERHVRRDKRDARRELKLLLLGTGESGKSTFIKQMRIIHGSDYSDEDKRGFTKLVYQNIFTAMQAMIRAMDTLKIPYKYEHNKAHAQLVREVDVEKVSAFENPYVDAIKSLWNDPGIQECYDRRREYQLSDSTKYYLNDLDRVADPSYLPTQQDVLRVRVPTTGIIEYPFDLQSVIFRMVDVGGQRSERRKWIHCFENVTSIMFLVALSEYDQVLVESDNENRMEESKALFRTIITYPWFQNSSVILFLNKKDLLEEKIMYSHLVDYFPEYDGPQRDAQAAREFILKMFVDLNPDSDKIIYSHFTCATDTENIRFVFAAVKDTILQLNLKEYNLV",decrease in IP1 accumulation,20%
